Results as given in the supplement of paper PMC9732359.
± gives the uncertainty stated by the source.

Assay: protein stability index of a GFP-peptide fusion (yeast GPS) (PSI 1-4); higher = more stable; sorted into four equal gates, so the index is relative within each strain
Settings: doa10∆
Outline: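 The protein stability index of a peptide was calculated by multiplying its read frequency in each gate by that gate's number and adding the products. The peptides were tiled 17-residue stretches of yeast proteins, fused downstream of GFP on a Cherry-expressing plasmid and carried in yeast as a pooled library. Mid-log cultures in leucine-free medium were sorted into four equal gates by GFP/Cherry ratio, and each gate's plasmids were PCR-amplified and Illumina-sequenced.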
In the case of AAAVSGNNASDEPSRKK [SSN3], the protein stability index is reported as 2.68 ± 0.13.
With AAEKSFKPPKNKYKVVR [SEC65] the protein stability index was 3 ± 0.28.
Sequence AAKEGLALSSNISRDFQ [COR1] has a protein stability index of 2.71 ± 0.089.
Sequence AAKGSSTSYAIKKKDEL [RPS5] has a protein stability index of 3.4 ± 0.18.
Sequence AAKLRTLDYAERHGYIR [RPL2A] has a protein stability index of 3.38 ± 0.11.
AAMVPFIKFKLIQQVPP [CDC53] gave a protein stability index of 2.12 ± 0.062.
For AAPAAAAAEIADEPVKA [FAS2], the protein stability index was 2.55 ± 0.063.
AAQTNATFLKLAAPQLV [RPT5] showed a protein stability index of 2.62 ± 0.16.
AASLGDMVMATVKKGKP [RPL23A] gave a protein stability index of 2.6 ± 0.1.
AAVETLYQDMAARHRAR [RPL20A] gave a protein stability index of 2.96 ± 0.065.
Work on ACDPSEIEPILMEIHNI [RGR1] yielded a protein stability index of 2.82 ± 0.13.
Work on ACLGNDGILRLYDALEP [YGL100W/SEH1] yielded a protein stability index of 2.21 ± 0.058.
In the case of ADDAISMHLLKDWTDTF [SRB8], the protein stability index is reported as 3.12 ± 0.056.
In the case of ADEQKRSTDVWYEASTW [ARP7], the protein stability index is reported as 2.36 ± 0.06.
Work on ADGQTLFAGYTDNVIRV [ASC1] yielded a protein stability index of 1.85 ± 0.055.
Work on ADKNCAKLHRISPKIWC [PUP1] yielded a protein stability index of 2.09 ± 0.055.
ADLPGSYNLEYIESKFC [YMR129W/POM152] gave a protein stability index of 3.16 ± 0.13.
Sequence ADQEQAKLIRSAIEHTT [RPO21] has a protein stability index of 3.19 ± 0.12.
ADVTSNIDSSAQFTFGK [YOR098C/NUP1] gave a protein stability index of 3.05 ± 0.093.
Sequence ADYWTHAYRDVLAQYHE [SNF6] has a protein stability index of 3.02 ± 0.071.
AEKLGSKKAEKTGTKPA [RPL4A] showed a protein stability index of 3.14 ± 0.067.
For AEKYQERSLRQKYNLLH [SNM1], the protein stability index was 2.32 ± 0.057.
With AEQPLPVSPLDIYSDEA [RPS2] the protein stability index was 2.79 ± 0.07.
Sequence AEQSFDQQSPWLLRLEL [RPO21] has a protein stability index of 3 ± 0.052.
Work on AETTFLQDVIALSIADD [RPC53] yielded a protein stability index of 2.24 ± 0.07.
For AFALAKEKAPTIIFIDE [RPT5], the protein stability index was 2.79 ± 0.12.
AFFTYDAGVTFNKEQLN [ECM29] showed a protein stability index of 2.07 ± 0.052.
For AFGEFSLEGCVEMAWIM [FAS2], the protein stability index was 2.46 ± 0.1.
For AFGGSATTGGGLFGNKP [YGL172W/NUP49], the protein stability index was 3.26 ± 0.091.
In the case of AFHLHCINKWIKTRDAC [HRT1], the protein stability index is reported as 1.86 ± 0.089.
Sequence AFITQLESSITDAGVLA [YJL039C/NUP192] has a protein stability index of 1.54 ± 0.06.
Work on AFKHKRALVEHIIQAKA [RPL19A] yielded a protein stability index of 3.11 ± 0.13.
In the case of AFNFSFNTSRNVEPTEN [YAR002W/NUP60], the protein stability index is reported as 3.3 ± 0.052.
In the case of AGLDKGISINNMMEHWD [RPO31], the protein stability index is reported as 3.04 ± 0.13.
AGQIPTGWNAKTYGISD [FAS2] gave a protein stability index of 1.68 ± 0.14.
For AGRGFTLAEVKAAGLTA [RPL13A], the protein stability index was 2.27 ± 0.073.
In the case of AGSTGFSFGQNNNNTNT [YGR119C/NUP57], the protein stability index is reported as 2.52 ± 0.068.
AHLYMLEPSGSYWGYKG [PRE10] gave a protein stability index of 1.66 ± 0.069.
AHTGATPIAGRFTPGSF [RPS0A] gave a protein stability index of 3.15 ± 0.17.

Same assay, conditions: pdr5∆
AAAVSGNNASDEPSRKK [SSN3] showed a protein stability index of 3.05 ± 0.11.
Sequence AAEKSFKPPKNKYKVVR [SEC65] has a protein stability index of 3.08 ± 0.19.
In the case of AAKEGLALSSNISRDFQ [COR1], the protein stability index is reported as 3.08 ± 0.071.
AAKGSSTSYAIKKKDEL [RPS5] gave a protein stability index of 1.82 ± 0.085.
Sequence AAKLRTLDYAERHGYIR [RPL2A] has a protein stability index of 3.27 ± 0.14.
AAMVPFIKFKLIQQVPP [CDC53] gave a protein stability index of 1.92 ± 0.07.
AAPAAAAAEIADEPVKA [FAS2] showed a protein stability index of 2.74 ± 0.067.
Sequence AAQTNATFLKLAAPQLV [RPT5] has a protein stability index of 3.17 ± 0.15.
AASLGDMVMATVKKGKP [RPL23A] gave a protein stability index of 1.96 ± 0.087.
Work on AASLIMPFLDNQVNFKN [PRE7] yielded a protein stability index of 2.7 ± 0.081.
Work on AAVETLYQDMAARHRAR [RPL20A] yielded a protein stability index of 3.23 ± 0.059.
ACDPSEIEPILMEIHNI [RGR1] gave a protein stability index of 2.74 ± 0.1.
ACLGNDGILRLYDALEP [YGL100W/SEH1] gave a protein stability index of 2.19 ± 0.048.
ADDAISMHLLKDWTDTF [SRB8] gave a protein stability index of 2.94 ± 0.058.
With ADEQKRSTDVWYEASTW [ARP7] the protein stability index was 2.55 ± 0.049.
ADGQTLFAGYTDNVIRV [ASC1] gave a protein stability index of 2.16 ± 0.052.
With ADKNCAKLHRISPKIWC [PUP1] the protein stability index was 2.1 ± 0.061.
Work on ADLPGSYNLEYIESKFC [YMR129W/POM152] yielded a protein stability index of 3.38 ± 0.19.
Sequence ADQEQAKLIRSAIEHTT [RPO21] has a protein stability index of 2.96 ± 0.15.
With ADVTSNIDSSAQFTFGK [YOR098C/NUP1] the protein stability index was 3.25 ± 0.087.
With ADYWTHAYRDVLAQYHE [SNF6] the protein stability index was 3.23 ± 0.08.
Sequence AEKLGSKKAEKTGTKPA [RPL4A] has a protein stability index of 3.08 ± 0.07.
For AEKYQERSLRQKYNLLH [SNM1], the protein stability index was 2.73 ± 0.074.
Work on AEQPLPVSPLDIYSDEA [RPS2] yielded a protein stability index of 2.97 ± 0.064.
With AEQSFDQQSPWLLRLEL [RPO21] the protein stability index was 3.14 ± 0.051.
In the case of AETTFLQDVIALSIADD [RPC53], the protein stability index is reported as 1.8 ± 0.065.
AFALAKEKAPTIIFIDE [RPT5] showed a protein stability index of 2.78 ± 0.12.
For AFFTYDAGVTFNKEQLN [ECM29], the protein stability index was 3.08 ± 0.1.
AFGEFSLEGCVEMAWIM [FAS2] showed a protein stability index of 2.63 ± 0.12.
With AFGGSATTGGGLFGNKP [YGL172W/NUP49] the protein stability index was 2.7 ± 0.26.
AFHLHCINKWIKTRDAC [HRT1] showed a protein stability index of 2 ± 0.076.
Sequence AFITQLESSITDAGVLA [YJL039C/NUP192] has a protein stability index of 1.6 ± 0.057.
Work on AFKHKRALVEHIIQAKA [RPL19A] yielded a protein stability index of 3.37 ± 0.1.
AFNFSFNTSRNVEPTEN [YAR002W/NUP60] gave a protein stability index of 3.3 ± 0.079.
AGLDKGISINNMMEHWD [RPO31] showed a protein stability index of 3.09 ± 0.091.
For AGQIPTGWNAKTYGISD [FAS2], the protein stability index was 1.36 ± 0.12.
AGRGFTLAEVKAAGLTA [RPL13A] gave a protein stability index of 2.5 ± 0.071.
For AGSTGFSFGQNNNNTNT [YGR119C/NUP57], the protein stability index was 2.5 ± 0.072.
Sequence AHLYMLEPSGSYWGYKG [PRE10] has a protein stability index of 1.7 ± 0.13.
Work on AHTGATPIAGRFTPGSF [RPS0A] yielded a protein stability index of 2.91 ± 0.08.

Same assay, conditions: san1∆
With AAAVSGNNASDEPSRKK [SSN3] the protein stability index was 2.78 ± 0.14.
AAEKSFKPPKNKYKVVR [SEC65] gave a protein stability index of 3.05 ± 0.12.
